This is an account of results in paper PMC6152951.

For this test, the target named is Strep-Flag-FAS I, recombinant 4'-phosphopantetheinylated M. tuberculosis fatty acid synthase I (M. tuberculosis). In words: SEC; […] (100 mM potassium phosphate pH 7.2, 150 mM KCl, 1 mM TCEP, 1 mM EDTA); […].

The stoichiometry N is a count of units in the complex or per binding partner. In the case of “Strep-Flag-FAS I, recombinant 4'-phosphopantetheinylated M. tuberculosis fatty acid synthase I (enzyme)”, the stoichiometry N was determined as 6.
